Experimental data taken from the DeepSol protein solubility set.

Test: soluble on expression in E. coli; label from the status in PepcDB or PDB records

## MESSKKMDSPGALQTNPPLKLHTDRSAGTPVFVPEQGGYKEKFVKTVEDKYKCEKCHLVLCSPKQTECGHRFCESCMAALLSSSSPKCTACQESIVKDKVFKDNCCKREILALQIYCRNESRGCAEQLTLGHLLVHLKNDCHFEELPCVRPDCKEKVLRKDLRDHVEKACKYREATCSHCKSQVPMIALQVSLLQNESVEKNKSIQSLHNQICSFEIEIERQKEMLRNNESKILHLQRVIDSQAEKLKELDKEIRPFRQNWEEADSMKSSVESLQNRVTELESVDKSAGQVARNTGLLESQLSRHDQMLSVHDIRLADMDLRFQVLETASYNGVLIWKIRDYNRRKQEAVMGKTLSLYSQPFYTGYFGYKMCARVYLNGDGMGKGTHLSLFFVIMRGEYDALLPWPFKQKVTLMLMDQGSSRRHLGDAFKPDPNSSSFKKPTGEMNIASGCPVFVAQTVLENGTYIKDDTIFIKVIVDTSDLPDP
  soluble on expression in E. coli: soluble

## MAHHHHHHMLRHFQRDVRGGSSSRRKLPRSVVGERSEEGSGTSKDPFVLSLREIPNRSGCYHCVEDCCECLWITELLAVCYGSLPTRRQVMTYRKRERCAKSILPPFVARIVRVAKISSQDTFYDLGCGNGSVLFQVALLTGARCVGVEINERNATVAQDAWRRLRPMIEARRGEPVEVEIICADFCSLMRDEKFFGSSPVIWAANLLMPGPVNHYLSERFRLLPKGSRVLCLEDLYPHGRSVAKFRDPDAFEMFAMTDFKWQTKSVEWCDTEGPFSMYTKRT
  soluble on expression in E. coli: not soluble

## MPEMPEDMEQEEVNIPNRRVLVTGATGLLGRAVHKEFQQNNWHAVGCGFRRARPKFEQVNLLDSNAVHHIIHDFQPHVIVHCAAERRPDVVENQPDAASQLNVDASGNLAKEAAAVGAFLIYISSDYVFDGTNPPYREEDIPAPLNLYGKTKLDGEKAVLENNLGAAVLRIPILYGEVEKLEESAVTVMFDKVQFSNKSANMDHWQQRFPTHVKDVATVCRQLAEKRMLDPSIKGTFHWSGNEQMTKYEMACAIADAFNLPSSHLRPITDSPVLGAQRPRNTQLDCSKLETLGIGQRTPFRIGIKESLWPFLIDKRWRQTVFH
  soluble on expression in E. coli: not soluble

## MTEDRLSAEDKKFLEVERALKEAALNPLRHATEELFGDFLKMENITEICYNGNKVVWVLKNNGEWQPFDVRDRKAFSLSRLMHFARCCASFKKKTIDNYENPILSSNLANGERVQIVLSPVTVNDETISISIRIPSKTTYPHSFFEEQGFYNLLDNKEQAISAIKDGIAIGKNVIVCGGTGSGKTTYIKSIMEFIPKEERIISIEDTEEIVFKHHKNYTQLFFGGNITSADCLKSCLRMRPDRIILGELRSSEAYDFYNVLCSGHKGTLTTLHAGSSEEAFIRLANMSSSNSAARNIKFESLIEGFKDLIDMIVHINHHKQCDEFYIKHR
  soluble on expression in E. coli: soluble

## MLKSLQIPVEKLTSKGIKSAEDRITWVKREIGRLPEKEEVFNAILEALKEELGIEPYWGELTKEELELFEEKKDYFKSDEWIYHVKKAITGDEILYGIYRCPGGTFRVSAKVDPQTKVLQQVIINGDFFINPKRLIYDLEAYLKHTPVQEVEKRIREFFKEREFESVNLTVDDFVEA
  soluble on expression in E. coli: soluble

## MGSDKIHHHHHHMKPENLVKAVKILDNHIPKELDDPNSIAQAAEKLELKNFSQSELVNGFNLFFAQRFEDRLQIFNRITPPVIGDLMALVTEKLGLAKQEIFDPEIVFPDLIFQFASHFGQSIYGRAADQIIDASLKKLANIYRFDFTDSDHEKIVVSRILGIDFAAEMNHFFKASNLKVGESAILLVNNSDLQSNSFAEILKKNKNMALLAIIELPTKLFKHSEMRSSLLILRRKVDNEKVTAQVLLAQIPELSNKEDFSKFVSQLETWKKENL
  soluble on expression in E. coli: not soluble

## ELGRLEDPAFTIKDAMIVATYPGATSKEVEEELTYPLEKEIRKLPYIDRITSTSSNGMSQIMVSMKMDYGPDELPQIWDEMRRKINDLQPTLPQGVQSLQIIDDFGDVYGVMLMLTGDDYDYVELKRYADHLRREIELVDGVGKVDIAGDQQEMLFVEISLDRLASLNLDMNVVSGLLNQQNNVVSAGEVMVNGESLVIRPSGTLNTVQALENLIIHGRDTGNLIRLKDVATITRGIQEKPGNMILFNGKKAINIGISFASGVNVVEVGERLNAELSSLESIKPAGLDMSYFYNQAQEVDDSVK
  soluble on expression in E. coli: soluble

## MLKVEMLSTGDEVLHGQIVDTNAAWLADFFFHQGLPLSRRNTVGDNLDDLVTILRERSQHADVLIVNGGLGPTSDDLSALAAATAKGEGLVLHEAWLKEMERYFHERGRVMAPSNRKQAELPASAEFINNPVGTACGFAVQLNRCLMFFTPGVPSEFKVMVEHEILPRLRERFSLPQPPVCLRLTTFGRSESDLAQSLDTLQLPPGVTMGYRSSMPIIELKLTGPASEQQAMEKLWLDVKRVAGQSVIFEGTEGLPAQISRELQNRQFSLTLSEQFTGGLLALQLSRAGAPLLACEVVPSQEETLAQTAHWITERRANHFAGLALAVSGFENEHLNFALATPDGTLALRVRFSTTRYSLAIRQEVCAMMALNMLRRWLNGQDIASEHGWIEVVESMTLSV
  soluble on expression in E. coli: soluble

## MGSDKIHHHHHHMLNRLRAFRERGWREVDAPTYAQAWQRFGGSVATHPLVVEQLAEMAGIPVRYLGWESAGELVAAIPTWGRHLALSKDVLKRRGKKGLYDLGNAELILPVAGDARIALRHAGRYLSALHERNIVTLRPQTEQLAFARAPEDFSKKFRYNQRREVRLVEEAGGQVRQADSFAPAEFAAIYLELFQRRWGFPATGAERMAEVFERLRELLRGSVLLLNDQPIAVQVLYRAEAPGWLSVEYINGGVDPQTREFSPGSVLSYLNTQAAWEDARALGKPLRYSFGRADREYKDRWCHPSPVFQV
  soluble on expression in E. coli: not soluble

## MEQQPQLNDHNKQEYPPMHTAEHLLNATMVKTFGCPRSRNAHIERKKSKCDYILPTCPTDAEIQAIEDKVNEVISQNLPVTVEFMTHEQAKGIVDLSKLPADASETLRIIRIGDYDACACIGLHVSNTSEVGTFKIISHDYNEERQTLRLRFKLIEKK
  soluble on expression in E. coli: not soluble

## MINARGETMARFTVVIPYYQKQHGVLGRALASVFAQTYQDFDLVIVDDESPYPIDQELAEISQEQKDRIVVIKQANAGPGGARNTGLDHVPDGTDYVAFLDSDDMWTPDHLRNAAFALNTYGGECYWASMQASDEFYYHFAISELEKNEGAARLSEKPLVIELPDLASVMLRNWSFLHLSCMVIGRPLFEKIRFDPALRLAAEDVLFFCDSILASKRTLLCDDAGAMRGMGVNIFHSIDNTSPEFLRQQFNTWVALDTLEGRFSRRPADVASIASYKNTARKQALWSQAGNLKRRRAPQFGLLFKWAMRDPALLRAAFELGAGKIVRSRLEHHHHHH
  soluble on expression in E. coli: not soluble

## MEKKVLLTGFDPFGGETVNPSWEAVKRLNGAAEGPASIVSEQVPTVFYKSLAVLREAIKKHQPDIIICVGQAGGRMQITPERVAINLNEARIPDNEGNQPVGEDISQGGPAAYWTGLPIKRIVEEIKKEGIPAAVSYTAGTFVCNHLFYGLMDEISRHHPHIRGGFIHIPYIPEQTLQKSAPSLSLDHITKALKIAAVTAAVHEDDIETGGGELH
  soluble on expression in E. coli: soluble

## MTKSQKQTKQYLRIFDQQMSLYEHYARKNSLQSKSLFILLWLYYNPQGITQKQIVEKTYSTKQVVNATLKRWNEKNYIVFLKSQTDRREKKIILSSQGQEYAASIIAPLEKMEEAAFNSLSIQEQQTMIQLTGHYYQALLSQMQLYFVQGEGEKATKEKL
  soluble on expression in E. coli: not soluble

## MGSDKIHHHHHHMVVLHSKGGFFLEILKVVDLKKHYGDVKAVDGISFTVERGTVFSFLGPNGAGKTTTVEILEGLRKKDSGEIYYFGERKDVLDRETKRKIGVCLQKSAFFENLTVWETLKLFRGLYGTGLDLKEVMGLFSLENIEKKMVKTLSGGQLQRLAVAVAFINDPEIVFLDEPTTGLDPQARRQIWDTIEHFKNLGKTIFLTTHYMEEAERLSDHVCIIDHGKIIAEGTPSSLISSSGLKTVVEFDCDQDVNVRYLEKKENHYVVETDAPEELIKDLLKNWNVSNIVIRKPNLEDVFLKLTGRDLRE
  soluble on expression in E. coli: not soluble

## MAHHHHHHMMSFTANSGNSPMSQMSPLSQPYTSPQMLPQSSLRPTAPPFTLSGTEDQPTAGAPIRKGGTDPTRYKTTICRNWEMGSCSFKGCTFAHGEEELRMPPRVERYKSSGFDTRRSLTAETPPLYPLNPLPHSGVGRIEHLLNMLYSEVLRERNRFVAHEEANQALEALLKKEQMQREETEVQLEAARWKLEQLRTTVHEASVEINTLLASSPANEELRDRVAMVTQKIASVFSSEDTAVGGGREDEERVMKLLSSLQNCQSTEDM
  soluble on expression in E. coli: not soluble

## MLFDTHAHLNAEQYDTDLEEVIERAKAEKVERIVVVGFDRPTITRAMEMIEEYDFIYAAIGWHPVDAIDMTEEDLAWIKELSAHEKVVAIGEMGLDYHWDKSPKDIQKEVFRNQIALAKEVNLPIIIHNRDATEDVVTILKEEGAEAVGGIMHCFTGSAEVARECMKMNFYLSFGGPVTFKNAKKPKEVVKEIPNDRLLIETDCPFLTPHPFRGKRNEPSYVKYVAEQIAELKEMTFEEIASITTENAKRLFRINLEHHHHHH
  soluble on expression in E. coli: not soluble

## MDRINGLSDEIICHILSFLPTKESALTSVLSKRWRNLFALTPNLHLVDDDLEVGGCGQTLIDFVDRVLAVSSNLPIREFSIKC
  soluble on expression in E. coli: soluble

## MKHFRKELWFETRQRRQFINITPTVRECLRESGIREGLLLCNAMHITASVFINDDESGLHHDFEVWLEGLAPEKPYDRYRHNGYEDNADAHLKRTVMGREVVVAVTAGELDLGPWEQIFYGEFDGKRRKRVLIKIIGELEHHHHHH
  soluble on expression in E. coli: not soluble

## KGGWFGKHRGQGGSNPKFENIAEGLRALLARSHVERTTDEGTWVAGVFVYGGSKTSLYNLRRGTALAIPQCRLTPLSRLPFGMAPGPGPQPGPLRESIVCYFMVFLQTHIFAEVLKDAIKDLVMTKPAPTCNIRVTVCSFDDGVDLP
  soluble on expression in E. coli: soluble

## MNGEEIIRFERVTKEYDGTVVLDDVSFAMERGKFYTLLGPSGCGKTTILRLIAGFIEPTEGTIYFHGKPIQNVPPNKRQVNTVFQDYALFPHLDVFENVAFGLRVKKMKEADIRQKVSEALRFVNLEGYERRRIQEMSGGQRQRVAIARAIVNEPEVLLLDEPLSALDLKLRTEMQYELRELQRRLGITFIFVTHDQEEALAMSDYIFVLNKGKIQQFGTPKDIYDEPINRFVADFIGESNILSGRMIDDFLVEFAGKQFACVDRGFAPNEPVDVVIRPEDLELAAPEDGQIVIRVDSLLFRGVHYEICGYDENGNEWLVHSTKKAEVGETVGLRFEPEAIHVMRVEREDEGA
  soluble on expression in E. coli: soluble

## MKTIGLIGGMSWESTTSYYQLINETIKKELGGLHSAKILLYSVDFAEIEHYQASDDWAKSAEVLSQIAQKLEQAGADFIVICTNTMHKVAPQIQKQIAIPILHIAQATAEAILENGIQKV
  soluble on expression in E. coli: not soluble

## LSKDILQLVGGEENVQRVIHCMTRLRFNLHDNAKADRSQLEQLPGVMGTNISGEQFQIIIGNDVPKVYQAIVRHSNLSDEKSAGSSSQKKNVLSAVFDVISG
  soluble on expression in E. coli: not soluble

## MIPTTATVDDEPGQIKRALIDASAGAISGGVSRSVTSPLDVIKIRFQVQLEPTTSWGLVRGNLSGASKYTGMVQATKDIFREEGFRGFWRGNVPALLMVMPYTSIQFTVLHKLKSFASGSTKTEDHIHLSPYLSFVSGALAGCAATLGSYPFDLLRTILASQGEPKVYPTMRSAFVDIIQSRGIRGLYNGLTPTLVEIVPYAGLQFGTYDMFKRWMMDWNRYKLSSKIPINVDTNLSSFQLFICGLGAGTSAKLVCHPLDVVKKRFQIEGLQRHPRYGARVERRAYRNMLDGLRQIMISEGWHGLYKGIVPSTVKAAPAGAVTFVAYEFTSDWLESISW
  soluble on expression in E. coli: soluble

## MFFVSLLFEFFDSIFEIAVMLGFEMLCRMAADSSVLHCLVAAYMGLGKLPATTEKHTYAQQDKSQSDQQKRSQKNCSHLLLYLRNTKVRFSYPQRSTINNS
  soluble on expression in E. coli: not soluble
